Test results reported in patent JP2006246896A.

Biological target: ヒトEGFレセプター(細胞表面に発現) (human) (UniProt P00533)
Experiment: cell ELISA on glutaraldehyde-fixed A431 cells, compared with chimeric C225

相対親和力 (relative to chimeric C225): 65%
B1: 再形成ヒトH225抗体(225RKA/225RHA) (antibody, V domains shown)
VH: EVQLVESGGGLVQPGGSLRLSCAVSGFSLTNYGVHWVRQATGKGLEWLGVIWSGGNTDYNTPFTSRLTISKENAKNSLYLQMNSLRAGDTAVYYCARALTYYDYEFAYWGQGTM
VL: EIVLTQSPATLSLSPGERATLSCRASQSIGTNIHWYQQRPGQAPRLLIKYASESISGIPARFSGSGSGTDFTLTISSLEPEDFAVYYCQQNNNWPTTFGGG
